According to patent publication US20250108100A1, “C-TERMINAL FRAGMENT OF APOLIPOPROTEIN E AND APPLICATION THEREOF IN INHIBITING y-SECRETASE ACTIVITY” (SYNPHATEC (SHANGHAI) BIOPHARMACEUTICAL TECHNOLOGY CO., LTD., priority 2022, published 2025):
“Also recorded” adds a separate entry of the source.

Tested on: γ-secretase (PS1, PS2) knockout HEK 293T cells
Assay: PS1 KO, PS2 KO and PS1/2 dKO HEK 293T cell lines: α-CTF and Aβ40
Format: cell-based, human
Method: • a) A plasmid expressing the target protein in mammalian cells was constructed, and the protein expression promoter is CAG. • b) The target protein was expressed in HEK 293T cell line. Cells were subcultured one day before transfection, and transfection was performed when the degree of cell adhesion reached 70%-80%. The transfection reagent was lipofectamine2000 (ThermoFisher). • c) 4-6 hours post transfection, the medium were replaced with fresh cell culture medium. • d) 36-48 hours post transfection, the cells were lysed (10% 1M tris-HCl (pH=6.8), 4% SDS, 20% glycerol, 0.01% bromophenol blue), and the protein samples were collected and used for Western blot or stored in a −80° C. freezer. • e) Polyacrylamide gel electrophoresis. Before protein loading, the protein was boiled at 98° C. for 10 min, and then centrifuged at 12000 rpm for 10 min. Electrophoresis: 80V for the upper stacking gel; 120V for the lower separating gel. • f) Protein transfer. The filter paper was soaked in the electrophoresis solution before use, and the PVDF membrane was put in methanol for 10s to activate, and the gel after electrophoresis was taken out from the electrophoresis tank, put in the order of filter paper—PVD membrane—gel-filter paper from bottom to top, and they were put into the transfer instrument, with transferring in constant current at 0.1 A for 70 min. • g) Blocking and antibody incubation: the transferred PVDF membrane was placed in 5% BSA/TBST blocking solution, and blocked on a shaker at room temperature for 1 hour. The primary antibody was used to incubate at 4° C. overnight on a shaker (12-16 h); 1×TBST was used to wash three times, once every 10 minutes; the secondary antibody was used to incubate, shaked at room temperature for 1-2 h; 1×TBST was used to wash three times, once every 10 minutes. • h) Imaging by development: development was performed with ECL chemiluminescence hypersensitive chromogenic reagent.
The experiment was performed according to the standard procedure in the ELISA analysis kit of Invitrogen Company. • a) The target protein was expressed in HEK 293T cell line. Cells were subcultured one day before transfection, and transfection was performed when the degree of cell adhesion reached 70%-80%. The transfection reagent was lipofectamine2000 (ThermoFisher). • b) 4-6 hours post transfection, medium were replaced with fresh cell culture medium. • c) 36-48 hours post transfection, the cell culture medium was collected, and then the ELISA process was performed or the cell culture medium was frozen in a −80° C. refrigerator. • d) 50 μl of standard samples and experimental samples were added to each well of the 96-well plate. • e) 50 μl of human-derived Aβ40 or Aβ42 or mouse-derived Aβ40 detection antibody was added to each well of the 96-well plate. • f) The above samples were shaken gently and placed at room temperature for 3 hours. • g) The liquid in the well were removed, and the plate was washed 4 times with 1× wash buffer. • h) 100 μl of the buffer containing 1× anti-Rabbit IgG HRP was added. • i) The plate was shaken gently and placed at room temperature for […]. • j) The liquid in the well were removed, and the well was washed 4 times with 1× wash buffer. • k) 100 μl of Stabilized Chromogen was added to each well, and the plate was placed in the dark for 30 minutes at room temperature. • l) 100 μl of Stop Solution was added to each well. • m) The absorbance at 450 nm was measured with a microplate reader. 2.4 qRT-PCR […]

B1: ApoE CT: C-terminal fragment of ApoE, positions 216-299 of SEQ ID NO: 12; SEQ ID NO: 33 (protein)
chain: ARMEEMGSRTRDRLDEVKEQVAEVRAKLEEQAQQIRLQAEAFQARLKSWFEPLVEDMQRQWAGLVEKVQAAVGTSAAPVPSDNH
In the case of B1, the “Aβ40 in PS1/2 dKO cells supplemented with PS2” value (ELISA) is reported as “can reduce Aβ40; also recorded: significantly reduced Aβ40”, the “α-CTF in PS1/2 dKO cells” value (PS1 and PS2 double knockout HEK 293T cells) is reported as “does not further increase α-CTF; also recorded: did not further increase α-CTF levels” and the “α-CTF in PS1 KO cells” value (PS1 single knockout HEK 293T cells) is reported as “still able to increase α-CTF”. The “α-CTF in PS2 KO cells” value (PS2 single knockout HEK 293T cells) was “still able to increase α-CTF” and the “α-CTF in PS1/2 dKO cells supplemented with PS1 or PS2” value (rescued expression of PS1 or PS2) was “can significantly increase α-CTF; also recorded: again significantly increased α-CTF”.
